The chains are these.
B1: His6-Hsp90β (full-length) (natural protein)
chain: not shown
B2: GST-CHIP fusion (pGST-hCHIP (1-303)) (enzyme, human, UniProt Q9UNE7 1-303, looked up)
chain: MKGKEEKEGGARLGAGGGSPEKSPSAQELKEQGNRLFVGRKYPEAAACYGRAITRNPLVAVYYTNRALCYLKMQQHEQALADCRRALELDGQSVKAHFFLGQCQLEMESYDEAIANLQRAYSLAKEQRLNFGDDIPSALRIAKKKRWNSIEERRIHQESELHSYLSRLIAAERERELEECQRNHEGDEDDSHVRAQQACIEAKHDKYMADMDELFSQVDEKRKKRDIPDYLCGKISFELMREPCITPSGITYDRKDIEEHLQRVGHFDPVTRSPLTQEQLIPNLAMKEVIDAFISENGWVEDY
B3: Carboxyl terminus of Hsc70-interacting protein (CHIP), full-length human, His6-tagged (enzyme, UniProt Q9UNE7 1-303, looked up)
chain: B2 chain

In test [1] the target is B3. Description: ITC.
In test [2] the target is B3. Put plainly: SEC.
In test [3] the target is B1. Put plainly: pull-down.
Test [4] deals with His6-Hsp70 (full-length, wild type) (UniProt P0DMV8 1-641). Put plainly: ITC.

Ends that are not written are not given here.

His6-Hsp70 (full-length, wild type), sequence (P0DMV8 whole entry): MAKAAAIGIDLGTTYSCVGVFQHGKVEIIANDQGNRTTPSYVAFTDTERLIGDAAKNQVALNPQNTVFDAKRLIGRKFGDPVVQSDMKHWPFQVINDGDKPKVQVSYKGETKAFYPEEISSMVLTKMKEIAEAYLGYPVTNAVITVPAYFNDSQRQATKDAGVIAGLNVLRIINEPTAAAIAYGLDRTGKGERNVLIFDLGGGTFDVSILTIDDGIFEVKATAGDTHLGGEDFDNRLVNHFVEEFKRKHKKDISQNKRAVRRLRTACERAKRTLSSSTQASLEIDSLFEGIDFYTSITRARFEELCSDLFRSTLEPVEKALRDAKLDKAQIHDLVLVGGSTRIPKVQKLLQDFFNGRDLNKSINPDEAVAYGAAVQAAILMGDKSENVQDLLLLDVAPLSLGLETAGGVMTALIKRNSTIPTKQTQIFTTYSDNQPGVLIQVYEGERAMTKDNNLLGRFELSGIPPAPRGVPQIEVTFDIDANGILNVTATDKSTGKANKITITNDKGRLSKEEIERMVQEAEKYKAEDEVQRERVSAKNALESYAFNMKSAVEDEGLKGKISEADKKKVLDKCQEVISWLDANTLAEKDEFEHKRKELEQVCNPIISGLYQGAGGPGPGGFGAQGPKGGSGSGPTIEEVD

Turning to GGGAPPSGGASSGPTIEEVD-OH [Hsp70 C-terminal peptide (GGGAPPSGGASSGPTIEEVD-COO-), ITC], the “stoichiometry N” value in test [1] is ~0.8 C-terminal Hsp70 peptide per CHIP monomer.

Take GSSAAWTEEMPPLEGDDDTSRMEEVD-OH [Hsp90 C-terminal peptide ([residues removed]-COO-), ITC]: the “stoichiometry N” value in test [1] was ~0.9 Hsp90 C-terminal peptide per CHIP monomer.

B1: the “stoichiometry N” value in test [2] was ~2.1 Hsp90 monomers per CHIP monomer.

With B2, in test [3], the binding result is “binds”.

For B3, the Kd in test [4] was approximately 1000 nM.
